{"source": "patent US5993783A", "about": "“Method and apparatus for pulmonary administration of dry powder α1-antitrypsin” (Inhale Therapeutic Systems, priority 1998, dated 1999)", "origin": "cited, not measured here", "settings": "similar sheep model, Smith et al. 1989", "data": [{"substance": "α1AT: α1-antitrypsin, a protease inhibitor with inhibitory activity toward neutrophil elastase", "values": [{"measurement": "rate of clearance of α1AT out of the lungs, % of the total rate of α1AT transported out of the lung", "result": "16.1±10.4", "unit": "%"}]}]}
